Assay results taken from US20190169289A1.

Tests used:
[1] = biological target: anti-GCN4 (52SR4 scFv) sCAR with CD8 hinge; assay: flow cytometry of CD8 sCAR T cells; filled histogram with a second peak at about 10^4 against a dashed control histogram; the legend names an AF647 conjugate, the axis prints APC
CART19 = assay: flow cytometry of CART19 T cells; filled histogram with a second population at about 10^3-10^4 against a dashed control histogram; the legend names an AF647 conjugate, the axis prints APC
[2] = biological target: HLA molecules on T2 cells loaded with the NY-ESO-1 peptide; assay: cell-based or functional assay

CART19, sequence (chimeric antigen receptor, as listed by the source limits assumed): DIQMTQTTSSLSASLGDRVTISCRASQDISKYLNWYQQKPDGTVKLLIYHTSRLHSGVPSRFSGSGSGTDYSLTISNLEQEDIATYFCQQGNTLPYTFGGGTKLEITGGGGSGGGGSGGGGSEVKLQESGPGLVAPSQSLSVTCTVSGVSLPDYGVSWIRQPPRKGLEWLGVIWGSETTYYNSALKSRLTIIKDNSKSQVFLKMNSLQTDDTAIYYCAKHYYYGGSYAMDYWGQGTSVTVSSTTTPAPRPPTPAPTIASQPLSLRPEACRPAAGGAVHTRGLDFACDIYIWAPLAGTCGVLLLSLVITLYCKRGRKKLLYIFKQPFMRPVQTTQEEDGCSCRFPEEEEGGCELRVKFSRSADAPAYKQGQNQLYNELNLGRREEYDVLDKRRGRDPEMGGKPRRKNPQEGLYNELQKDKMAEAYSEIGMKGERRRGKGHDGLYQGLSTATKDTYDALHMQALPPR
anti-GCN4 (52SR4 scFv) sCAR with CD8 hinge, sequence (chain, as listed by the source limits assumed): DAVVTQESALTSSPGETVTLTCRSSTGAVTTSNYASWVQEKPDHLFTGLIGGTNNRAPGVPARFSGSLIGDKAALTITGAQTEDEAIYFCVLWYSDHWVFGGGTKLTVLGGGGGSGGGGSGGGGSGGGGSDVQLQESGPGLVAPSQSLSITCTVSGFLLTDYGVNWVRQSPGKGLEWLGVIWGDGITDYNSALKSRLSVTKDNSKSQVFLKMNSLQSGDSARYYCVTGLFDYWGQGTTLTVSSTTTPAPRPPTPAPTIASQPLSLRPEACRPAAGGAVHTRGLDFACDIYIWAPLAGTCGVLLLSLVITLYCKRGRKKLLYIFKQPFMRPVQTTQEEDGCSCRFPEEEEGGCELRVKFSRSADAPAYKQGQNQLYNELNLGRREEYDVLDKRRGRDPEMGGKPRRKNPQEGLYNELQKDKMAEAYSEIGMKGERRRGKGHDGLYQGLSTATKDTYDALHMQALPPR

APC-conjugated goat-anti mouse IgG (H&L) polyclonal antibody
number beside the gate bar of the histogram (share of cells in the positive gate; name not given) [1]: 69.3
number beside the gate bar of the histogram (share of cells in the positive gate; name not given) (CART19): 53.3

NY-ESO-1 specific soluble TCR 1G4c113 with C-terminal GCN4 peptide and 6x HIS tag on the beta chain
sTCR switch concentration at which IFNg, IL-2 and TNFa are produced [2]: > 10 pM
sTCR switch concentration at which T cells express CD25 and CD69 [2]: > 1 pM
